In patent US20130022605A1 (published 2013):
Substitutions are numbered along the chain they refer to.

B1: TAR2m-19 (other)
chain: EVQLLESGGGLVQPGGSLRLSCAASGFTFRKYDMHWVRQAPGKGLEWVSTISPSGRRTYYADSVKGRFTISRDNSKNTLYLQMNSLRAEDTAVYYCAENLDQVLSFDYWGQGTLVTVSS
notes: anti-mouse TNFR1 dAb
B2: TAR2m-20 (other)
chain: EVQLLESGGGLVQPGGSLRLSCAASGFTFGSYSMSWVRQAPGKGLEWVSGIDNGGHSTYYADSVKGRFTISRDNSKNTLYLQMNSLRAEDTAVYYCAKRSSGLPFPFDYWGQGTLVTVSS
notes: anti-mouse TNFR1 dAb
B3: HEL4 (other)
VH: EVQLLESGGGLVQPGGSLRLSCAASGFRISDEDMGWVRQAPGKGLEWVSSIYGPSGSTYYADSVKGRFTISRDNSKNTLYLQMNSLRAEDTAVYYCASALEPLSEPLGFWGQGTLVTVSS
notes: VH dAb
B4: TAR2h-15-8 (other)
chain: EVRLLESGGGLVQPGGSLRLSCVASGFTFGKSTMTWVRQAPGKGLEWVSHISDDGNSTYYADSVKGRFTISRDNSKNTLYLQMNSLRAEDTAVYYCAKVPILAPRNLFDYWGQGTLVTVSS
notes: anti-human TNFR1 dAb
B5: TAR2h-131-8 (other)
chain: EVQLLESGGGLIQPGGSLRLSCAASGFTFAHETMVWVRQAPGKGLEWVSHIDRVGQDTYYADSVKGRFTISRDNSKNTLYLQMNSLRAEDTAVYYCAKLPKRGPWFDYRGQGTLVTVSS
notes: anti-human TNFR1 dAb
B6: TAR2h-35-4 (other)
chain: EVQLLESGGGLVQPGGSLRLSCAASGFTFDAYNMFWFRQAPGKGPEWVSAIGPSGRETYYADSVKGRFTITRDNSKNTLYLQMNSLRAEDTAVYYCAKRYPDFDYWGQGTLVTVSS
notes: anti-human TNFR1 dAb
B7: TAR2m21-23 dimer (other)
VH: EVQLLESGGGLVQPGGSLRLSCAASGFTFNRYSMGWLRQAPGKGLEWVSRIDSYGRGTYYEDPVKGRFSISRDNSKNTLYLQMNSLRAEDTAVYYCAKISQFGSNAFDYWGQGTQVTVSSC
B8: TAR2m-21-23 (other)
VH: EVQLLESGGGLVQPGGSLRLSCAASGFTFNRYSMGWLRQAPGKGLEWVSRIDSYGRGTYYEDPVKGRFSISRDNSKNTLYLQMNSLRAEDTAVYYCAKISQFGSNAFDYWGQGTQVTVSS
B9: TAR2m-21-17 (other)
chain: B8 VH with N30T, L37V, E61A, P63S, S69T, Q115V
B10: TAR2m-21-10 (other)
chain: B8 VH with N30T, E61A, P63S, S69T, Q115L
B11: TAR2m-21-06 (other)
chain: B8 VH with N30T, L37I, E61A, P63S, S69T, Q115L
B12: TAR2m-21-48 (other)
chain: B8 VH with V12I, N30T, Y60D, E61T, P63S, S69T, K76R, Q115L
B13: TAR2m-21-07 (other)
chain: B8 VH with N30S, Y32C, E61A, P63S, S69T, Q101K, Q115L
B14: TAR2m-21-43 (other)
chain: B8 VH with N30T, Y60D, E61A, P63S, S69T, Q115L

target: T1, mouse TNFR1 (mouse, UniProt P25118 30-212, limits assumed); experiment: receptor binding assay
T1 construct: also called murine TNFR1; biotinylated murine TNFR1
T1 sequence: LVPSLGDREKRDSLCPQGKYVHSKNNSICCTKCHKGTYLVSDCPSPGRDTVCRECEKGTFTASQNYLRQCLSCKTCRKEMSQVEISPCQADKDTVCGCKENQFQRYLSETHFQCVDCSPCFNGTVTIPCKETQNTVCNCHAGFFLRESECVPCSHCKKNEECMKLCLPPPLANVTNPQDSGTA

Row | Binder | IC50
1 | B1 | 2000 nM
2 | B2 | 150 nM

target: T2, hen egg lysozyme (hen, UniProt P00698 19-147); experiment: selection from a dAb library
T2 construct: also called HEL
T2 sequence (P00698 19-147): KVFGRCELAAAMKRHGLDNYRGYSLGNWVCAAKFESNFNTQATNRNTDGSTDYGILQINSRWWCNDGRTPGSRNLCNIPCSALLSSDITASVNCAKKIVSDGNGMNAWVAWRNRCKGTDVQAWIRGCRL

Row | Binder | binding result
3 | B3 | binds

target: T3, human TNFR1 (human p55 TNF receptor) (human, UniProt P19438 30-211, limits assumed); experiment: SPR on biotinylated TNFR1, competition with chimeric TNFR1
T3 construct: also called TAR2; human TNF receptor 1
T3 sequence: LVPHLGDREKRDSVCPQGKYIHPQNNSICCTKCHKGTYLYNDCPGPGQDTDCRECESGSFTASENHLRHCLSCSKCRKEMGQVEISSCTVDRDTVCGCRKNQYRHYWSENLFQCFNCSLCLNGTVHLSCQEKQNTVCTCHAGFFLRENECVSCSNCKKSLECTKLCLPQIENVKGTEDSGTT
Method: This example describes a method that was used to determine the domain specificity of dAbs that bind TNFR1. […] If the dAb is pre-incubated and equilibrated with a chimeric molecule that comprises the domain(s) of TNFR1 that the particular dAb binds, then flow of this mixture over the TNFR1 surface will produce a smaller SPR signal relative to the dAb alone.
Once the optimum anti-TNFR1 dAb concentration was determined, anti-TNFR1 dAb/chimeric TNFR1 mixes were set up. Mixes were set up such that the final concentration of anti-TNFR1 dAb was identical to the optimal concentration determined previously. Reactions were typically set up in 100 μl volumes containing 50 microliters of a 2× concentrate of anti-TNFR1 dAb, 40 microliters of Biacore buffer and 10 microliters of neat, purified chimeric protein. Typical concentrations for the final mix were about 10-100 μM of chimeric protein and about 10-100 nM anti-TNFR1 dAb. Mixtures were allowed to equilibrate for 30 minutes at room temperature.

Row | Binder | binding result
4 | B4 | binds
5 | B5 | binds
6 | B6 | binds

target: T4, mouse TNFR1 on L929 cells (mouse, UniProt P25118 30-454); experiment: cell-based or functional assay
T4 sequence (looked up): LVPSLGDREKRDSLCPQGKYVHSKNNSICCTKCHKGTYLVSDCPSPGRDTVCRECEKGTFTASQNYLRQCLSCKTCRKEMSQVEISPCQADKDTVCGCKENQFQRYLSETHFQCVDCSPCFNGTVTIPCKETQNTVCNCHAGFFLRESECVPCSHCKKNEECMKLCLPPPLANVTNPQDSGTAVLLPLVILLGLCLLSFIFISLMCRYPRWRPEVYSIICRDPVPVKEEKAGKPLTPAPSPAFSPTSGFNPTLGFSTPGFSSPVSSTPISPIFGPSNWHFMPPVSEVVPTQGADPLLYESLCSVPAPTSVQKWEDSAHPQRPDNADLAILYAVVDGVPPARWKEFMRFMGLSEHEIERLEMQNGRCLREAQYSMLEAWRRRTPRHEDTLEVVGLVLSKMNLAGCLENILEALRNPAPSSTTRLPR

Row | Binder | fold decrease in ND50 of the dimer against the monomer
7 | B7 | ~10 fold

target: T4, mouse TNFR1 on L929 cells; experiment: cell-based or functional assay; remark: another data set of the same source

Row | Binder | L929 Cell Assay, Activity (IC50)
8 | B1 | 10000 nM
9 | B8 | 1 nM
10 | B9 | 300 nM
11 | B10 | 30 nM
12 | B11 | 100 nM
13 | B12 | 6 nM
14 | B13 | 10 nM
15 | B14 | 6 nM
